Experimental data as given in paper PMC2675908, “Direct Observation of ATP-Induced Conformational Changes in Single P2X4 Receptors” (PLOS Biology, 2009).

Molecular target: the molecule itself
Assay: native gel or EMSA; native PAGE, 4%-13% acrylamide gradient gel, sample buffer with 1% deoxycholate, silver staining; purified P2X4R

B1: rat P2X4 receptor (receptor, UniProt P51577 1-388, looked up)
chain: MAGCCSVLGSFLFEYDTPRIVLIRSRKVGLMNRAVQLLILAYVIGWVFVWEKGYQETDSVVSSVTTKAKGVAVTNTSQLGFRIWDVADYVIPAQEENSLFIMTNMIVTVNQTQSTCPEIPDKTSICNSDADCTPGSVDTHSSGVATGRCVPFNESVKTCEVAAWCPVENDVGVPTPAFLKAAENFTLLVKNNIWYPKFNFSKRNILPNITTSYLKSCIYNAQTDPFCPIFRLGTIVEDAGHSFQEMAVEGGIMGIQIKWDCNLDRAASLCLPRYSFRRLDTRDLEHNVSPGYNFRFAKYYRDLAGKEQRTLTKAYGIRFDIIVFGKAGKFDIIPTMINVGSGLALLGVATVLCDVIVLYCMKKKYYYRDKKYKYVEDYEQGLSGEMNQ
notes: P2X4 receptor (P2X purinoceptor 4), rat; cDNA encoding rat P2X4R subcloned into pcDNA3.1; Homotrimer by native PAGE (about 150 kDa; monomer about 50 kDa in SDS-PAGE) and by AFM; No tag is mentioned; 1321N1 cells are said not to express P2XRs of their own; also called P2X4Rs; source: human 1321N1 astrocytoma cells, stably transfected (pcDNA3.1)
- stoichiometry N: 3
